Test results published in PMC4279229 (Molecular Biology of the Cell, 2015).

Molecular target: mouse VASP (wild-type, full-length) (mouse, UniProt P70460 1-375)
Experiment: immunolabeling of protein-coated beads

mouse VASP (wild-type, full-length), sequence (P70460 whole entry): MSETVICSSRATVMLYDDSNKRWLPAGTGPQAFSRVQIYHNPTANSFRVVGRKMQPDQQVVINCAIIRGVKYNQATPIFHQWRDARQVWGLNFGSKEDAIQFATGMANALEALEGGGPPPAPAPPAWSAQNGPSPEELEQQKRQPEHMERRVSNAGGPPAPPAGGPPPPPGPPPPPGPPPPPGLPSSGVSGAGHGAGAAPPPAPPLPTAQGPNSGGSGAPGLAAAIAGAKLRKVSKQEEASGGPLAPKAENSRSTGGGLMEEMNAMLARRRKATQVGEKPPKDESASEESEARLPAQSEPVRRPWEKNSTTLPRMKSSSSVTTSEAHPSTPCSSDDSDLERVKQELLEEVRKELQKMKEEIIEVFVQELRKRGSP

B1: PRD-VCA-WAVE (PRD-VCA domain of human WAVE-2, Lys195-Asp498) (domain or fragment, UniProt Q9Y6W5 195-498, looked up)
chain: KIKTRKEEWEKMKMGQEFVESKEKLGTSGYPPTLVYQNGSIGCVENVDASSYPPPPQSDSASSPSPSFSEDNLPPPPAEFSYPVDNQRGSGLAGPKRSSVVSPSHPPPAPPLGSPPGPKPGFAPPPAPPPPPPPMIGIPPPPPPVGFGSPGTPPPPSPPSFPPHPDFAAPPPPPPPPAADYPTLPPPPLSQPTGGAPPPPPPPPPPGPPPPPFTGADGQPAIPPPLSDTTKPKSSLPAVSDARSDLLSAIRQGFQLRRVEEQREQEKRDVVGNDVATILSRRIAVEYSDSEDDSSEFDEDDWSD
Question: Does B1 bind?
Answer: Result: binds
